B1: antibody 278 (antibody, V domains shown)
VH: QVQLVQSGAEVKKPGASVKVSCKASGYIFIRYGISWVRQAPGQGLEWMGWISANNGYTNYAQKLQGRVTMTTDTSTSTAYMELRSLRSDDTAVYYCARDGGILTGYLDYFDHWGQGTLVTVSS
VL: DIQMTQSPSSLSASVGDRLTITCRASQSIASYLNWYQQKPGKAPKLLIYAASSLQSGVPSRFSGSGSGTDFTLTISSLQPEDFATYHCQQSYSTLGITFGPGTKVDIK
notes: also called mAb 278
B2: antibody 318 (antibody, V domains shown)
VH: QVQLVQSGPEVKKPGTSVKVSCKASGFTLTSSAMQWVRQARGQRLEWIGWIVVGSGNTNYAQKFQERVTITRDMSTSTAYMELSSLRSEDTAVYYCAAGRGYNSDFDYWGQGTLVTVSS
VL: AIRMTQSPGTLSLSPGERATLSCRASQSVSSSYLAWYQQRPGQAPRLLIYGTSSRATGIPDRFSGSGSGTDFTLTISRLEPEDFAVYYCQQYGYSVYTFGQGTKVDIK
notes: also called mAb 318
B3: antibody 398 (antibody, V domains shown)
VH: QVQLVESGGGLVQPGGSLRLSCAASGFTVSSNYMTWVRQAPGKGLEWVSVIYSGGSTYYADSVKGRFTISRDNSKNTLYLQMNSLRADDTAVYYCARDSTADYDFWSGYYVGAFHIWGQGTMVTVSS
VL: QTVLTQPASVSGSPGQSITISCTGTSSDVGGYNYVSWYQQHPGKAPKLMIYEVTKRPSGVPDRFSGSKSGNTASLTVSGLQAEDEADYYCSSYAGSNNWVFGGGTKLTVL
notes: also called mAb 398
B4: antibody 175 (antibody, V domains shown)
VH: EVQLVESGGGLIQPGGSLRLSCAASGLTVSRNYMSWVRQAPGKGLEWVSLIYSGGSTYYADSVKGRFTISRDNSKNTLYLQMNSLRAEDTAVYYCARDLRGEVWGQGTMVTVSS
VL: not shown
notes: also called mAb 175
B5: antibody 281 (antibody, V domains shown)
VH: QVQLVESGGGLVQPGGSLRLSCAASGFPFSIYWMSWVRQAPGKGLEWVANIKQDGSEKYYVDSVKGRFTISRDNAKNSLYLHMNSLRGEDTAVYYCASRYYDFRPEAWFDYWGQGTLVTVSS
VL: not shown
B6: antibody 269 (antibody, V domains shown)
VH: QVQLVESGGGLIQPGGSLRLSCAASGLTVNRNYMSWIRQAPGKGLEWVSVIYSGGSTFYADSVKGRFTISRDNSKNTLSLQMNSLRAEDTAIYYCARDFYEGSFDIWGQGTMVTVSS
VL: AIQLTQSPSFLSASIGDRVTITCRASQGISSYLAWYQQKPGKAPKLLIYAASTLQSGVPSRFSGSGSGTEFTLTISSLQPEDFASYYCQQLNSYPAPVFGPGTKVDIK
notes: also called mAb 269
B7: Fab of antibody 88 (Fab, V domains shown)
VH: QLQLQESGPGLVKPSQTLSLTCTVSGGSISSGSYNWTWIRQPAGKGLEWIGRIYNSGSTNYNPSLKSRVTISVDTSKNQLSLKVRSVTAADTAVYYCARHCSGGTCYPKYYYGMDVWGQGTTVTVSS
VL: QSALTQPPSVSEAPRQRVTISCSGSSSNIGNNAVNWYQQFPGKAPKLLIYYDDLLPSGVSDRFSGSKSGTSASLAISGVQSEDEADYYCAAWDDSLNVVVFGGGTKLTVL
notes: also called 88 Fab; Fab 88
B8: Fab of antibody 158 (Fab, V domains shown)
VH: EVQLLESGGDLIQPGGSLRLSCAASGVTVSSNYMSWVRQAPGKGLEWVSIIYPGGSTFYADSVKGRFTISRDNSKNTLYLQMHSLRAEDTAVYYCARDLGSGDMDVWGKGTTVTVSS
VL: DIVMTQSPSFLSASVGDRVTITCRASQGISSYLAWYQQKPGKAPKLLIQAASTLQSGVPSRFSGSGSGTEFTLTISSLQPEDFATYYCQQLNSYRYTFGQGTKVEIK
notes: also called 158 Fab; Fab 158
B9: Fab of antibody 40 (Fab, V domains shown)
VH: QVQLVESGGGLVQPGGSLRLSCAVSGFTVSRNYMSWVRQAPGKGLEWVSLIYSGGSTFYADSVKGRFTISRDNSKNTLYLQMNSLRAEDTAVYYCARDLFHRSGYHDYWGQGTLVTVSS
VL: not shown
notes: also called 40 Fab; Fab 40
B10: Fab of antibody 58 (Fab, V domains shown)
VH: QVQLVESGGGLVQPGRSLRLSCAASGFTFDDYAMHWVRQPPGKGLEWVSGVSWNSGTIGYADSVKGRFIISRDNAKNSLYLQMNSLKAEDTALYYCAREVGGTFGVLISREGGLDYWGQGTLVTVSS
VL: SYELTQPPSVSVAPGQTARITCGGNTIGSKSVHWYQQRPGQAPVLVVYDDSDRPSGIPERFSGSNSGNTATLTISRVEAGDEADYYCQVWDSSSDRVVFGGGTKLTVL

The binders below were run against T1, SARS-CoV-2 spike receptor binding domain, native (SARS-CoV-2, UniProt P0DTC2 330-532) (assay: BLI, RBD on AR2G biosensor, mAb as analyte).
T1 construct: range 330-532

Q: How did the Kd turn out when B1 was run?
A: The Kd was 4.16 nM.

Q: Which Kd does the source give for B2 here?
A: The Kd was 4.43 nM.

Q: With B3 as the binder, how does the Kd read?
A: Its Kd is 4.63 nM.

Q: Which Kd does the source give for B4 here?
A: Its Kd is 1.36 nM.

Q: B5 was tested. Which Kd did it give?
A: Its Kd is 0.97 nM.

Q: How did the Kd turn out when B6 was run?
A: The Kd was 0.76 nM.

These binders were tested against T2, SARS-CoV-2 receptor binding domain, native (501N) (SARS-CoV-2, UniProt P0DTC2 330-532) (assay: BLI, RBD immobilised on AR2G biosensor, 1:1 fit).
T2 construct: range 330-532

Q: Which Kd does the source give for B7 here?
A: Its Kd is 0.64 nM.

Q: With B8 as the binder, how does the Kd read?
A: The Kd was 0.53 nM.

Q: How did the Kd turn out when B9 was run?
A: The Kd was 0.55 nM.

Q: With B10 as the binder, how does the Kd read?
A: The Kd was 0.3 nM.

— patent publication US20240043507A1 (RQ BIOTECHNOLOGY, published 2024)
